No end group written: not given here. vector‑coded linker = not defined here

Test [1] concerns the target T1, Fibronectin ED-B protein (recombinant, N-terminal His-tag, biotinylated where captured on streptavidin) (human, UniProt P02751 1266-1356, biotin by sulfo-NHS-SS-biotin (for biopanning, input phage ELISA and SPR on SA chip)).
T1 construct: domain: ED-B; Expressed in E. coli BL21 from pET28b; also called fibronectin extra domain B; biotinylated-EDB; not shown: N-terminal His-tag from pET28b
Briefly: phage ELISA on 10 coated proteins, absorbance at 450 nm. The procedure: Each protein (5 μg/ml) was seeded into wells (50 μl per well) in a 96-well ELISA plate and next day, all wells were washed with 0.1% PBST (Tween-20) three times, and blocked at room temperature for 2 hrs using 2% skim milk. Then, the solution was completely removed and the plate was washed with 0.1% PBST three times. Recombinant phages containing the peptide of the present invention were thoroughly mixed with 2% BSA. Each mixture (100 μl) was divided into wells coated with 10 proteins and kept to stand at 27° C. for 2 hrs. After washing with 0.1% PBST 5 times, HRP-conjugated anti-M13 antibodies (1:1,000 dilution; GE Healthcare) were added to each well and incubated at 27° C. for 1 hr. After washing with 0.1% PBST 5 times, 100 μl TMB was divided into each well to induce colorimetric reaction, followed by stopping the reaction adding 100 μl of 1 M HCl. The absorbance was measured at 450 nm.

The target of test [2] is T2, Trx.
T2 construct: Control for the fusion partner; also called thioredoxin; not shown: The His-tag/S-tag linker tail of pET32a, if Trx was expressed from the empty vector
Briefly: phage ELISA (anti-M13-HRP, absorbance at 450 nm), proteins coated at 5 µg/ml.

In test [3] the target is T1, Fibronectin ED-B protein (recombinant, …). Described as above.
In test [4] the target is T3, TNFa.
T3 construct: Control protein; also called TNF-α
The test is described as above.

In test [5] the target is T4, VEGF121 (human, UniProt P15692-9 27-147).
T4 construct: Isoform VEGF121; also called vascular endothelial growth factor
T4 sequence (looked up): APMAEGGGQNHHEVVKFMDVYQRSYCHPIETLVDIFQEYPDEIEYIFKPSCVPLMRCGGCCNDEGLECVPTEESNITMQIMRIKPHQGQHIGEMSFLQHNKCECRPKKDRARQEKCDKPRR
Described as above.

Test [6] concerns the target BSA (UniProt P02769 25-607). Described as above.
Test [7] deals with T5, VCAM1-Trx (human, UniProt P19320 25-698).
T5 construct: the form used in SPR is not described; also called Trx-VCAM1; vascular cell adhesion molecule-1; not shown: Trx (thioredoxin) fusion partner and tags of pET32a
T5 sequence (looked up): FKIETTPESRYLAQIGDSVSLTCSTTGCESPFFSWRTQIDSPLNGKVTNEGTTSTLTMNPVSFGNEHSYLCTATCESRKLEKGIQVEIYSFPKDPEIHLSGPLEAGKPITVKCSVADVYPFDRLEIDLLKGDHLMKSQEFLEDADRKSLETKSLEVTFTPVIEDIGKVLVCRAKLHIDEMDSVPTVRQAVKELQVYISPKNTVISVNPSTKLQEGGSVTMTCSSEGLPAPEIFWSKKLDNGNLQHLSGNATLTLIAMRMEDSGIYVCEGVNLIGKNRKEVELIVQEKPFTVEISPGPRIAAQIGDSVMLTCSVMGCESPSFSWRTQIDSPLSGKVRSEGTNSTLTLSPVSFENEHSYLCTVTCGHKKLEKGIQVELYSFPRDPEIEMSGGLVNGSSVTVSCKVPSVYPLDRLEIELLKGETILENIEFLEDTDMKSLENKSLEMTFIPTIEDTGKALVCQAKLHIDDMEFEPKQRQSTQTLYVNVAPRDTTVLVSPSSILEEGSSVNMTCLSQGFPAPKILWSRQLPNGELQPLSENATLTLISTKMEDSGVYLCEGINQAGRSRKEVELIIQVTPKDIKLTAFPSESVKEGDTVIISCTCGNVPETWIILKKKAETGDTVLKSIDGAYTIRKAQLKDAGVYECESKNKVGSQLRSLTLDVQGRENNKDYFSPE
Nature of the test: SPR (Biacore). In general terms: In SPR one partner is held on a chip, and binding of the other changes the refractive index at the surface.

Test [8] addresses T5, VCAM1-Trx. Briefly: SPR (Biacore), synthetic peptide; immobilisation of VCAM1 not described.
In test [9] the target is T1, Fibronectin ED-B protein (recombinant, …). Nature of the test: SPR (Biacore X), biotin-EDB on streptavidin chip. The procedure: (§1) We tested using a SPR device whether the purified GST-BPB protein can bind to fibronectin EDB. […] PBS (pH 7.4) was used as a running buffer and the flow rate was 30 μ1/min. The kinetics was measured in various concentrations and then the affinity was calculated using BIAevaluation.
The affinity of the GST-BPB to fibronectin ED-B was measured using the SPR biacore system.

Test [10] shares this target. Nature of the test: SPR (Biacore X), biotin-EDB on streptavidin chip up to 2000 RU. The method, then: as §1

T1 sequence (P02751 1266-1356): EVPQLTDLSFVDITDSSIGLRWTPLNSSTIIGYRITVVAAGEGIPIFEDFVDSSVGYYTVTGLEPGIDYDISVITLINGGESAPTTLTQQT
Sequence of BSA (P02769 25-607 limits assumed): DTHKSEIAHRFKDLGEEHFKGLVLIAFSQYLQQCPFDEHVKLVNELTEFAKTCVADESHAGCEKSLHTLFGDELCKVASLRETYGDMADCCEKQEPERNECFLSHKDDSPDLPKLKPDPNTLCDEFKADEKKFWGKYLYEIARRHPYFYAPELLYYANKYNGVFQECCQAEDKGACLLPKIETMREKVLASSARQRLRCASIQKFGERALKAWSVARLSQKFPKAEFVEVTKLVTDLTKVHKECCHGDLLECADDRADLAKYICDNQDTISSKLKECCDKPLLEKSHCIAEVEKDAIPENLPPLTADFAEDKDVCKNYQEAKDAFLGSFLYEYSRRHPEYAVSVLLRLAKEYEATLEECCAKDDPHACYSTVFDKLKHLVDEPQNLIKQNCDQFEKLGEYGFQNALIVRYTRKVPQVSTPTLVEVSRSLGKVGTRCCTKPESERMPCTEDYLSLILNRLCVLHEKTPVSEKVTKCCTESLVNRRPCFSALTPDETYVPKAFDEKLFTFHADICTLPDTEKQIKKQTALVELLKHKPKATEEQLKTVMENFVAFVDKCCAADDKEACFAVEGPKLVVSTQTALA

B1: Peptide 2 specific to fibronectin ED-B (Table 3a) (peptide)
peptide: HCSSAVGSWTWENGKWTWKGIIRLEQ
notes: Synthetic peptide in SPR; also called tryptophan zipper
Turning to B1, in test [1], the “fold absorbance against other proteins” value stood at 30 fold.

B2: Peptide 1 specific to VCAM1 (Table 3c) (peptide)
peptide: QARDCTGSWTWENGKWTWKGPSICPI
notes: Synthetic peptide in SPR; also called BPB
For B2, the binding result in [2], in test [3], in test [4], in test [5] and in [6] was “no binding” each time. The molecule also had a koff in test [7] of 0.1 s⁻¹. The kon in test [7] amounted to 330000 M⁻¹ s⁻¹. Besides, binding in test [8] was characterised by a dissociation constant (Kd) of 318 nM.

B3: GST-BPB fusion protein for fibronectin EDB (other)
chain: {GST-vector‑coded linker}-HCSSAVGSWTWENGKWTWKGIIRLEQ
modifications: not fully specified; reading uncertain
notes: BPB insert cloned BamHI/XhoI into pGEX4T-1, expressed in E. coli BL21; The reverse primer GST-B1 may add a few residues after the BPB; not shown: glutathione S-transferase (GST) as coded by the pGEX4T-1 vector (GE Healthcare); vector-coded linker between GST and BPB
As to B3, in [9], the koff is 0.00347 s⁻¹ and the kon amounted to 12200 M⁻¹ s⁻¹. The Kd in test [10] was found to be 284 nM.

Broadly, the koff is a measure of how fast the partners let go of each other. For orientation: kon means the rate constant with which the complex forms. By Kd is commonly meant the equilibrium constant for the complex coming apart.

Source of the values: patent US20120321697A1 (GWANGJU INSTITUTE OF SCIENCE AND TECHNOLOGY, published 2012).
